Drawing on paper PMC4506093, this text covers inhibition of the caspase-like activity (50 micromol/L Z-LLE-AMC, after subtracting IDE's own cleavage) of 1 nanomol/L 26S proteasome by IDE up to 50 nanomol/L, inhibition of the chymotryptic-like activity (50 micromol/L Suc-LLVY-AMC) of 1 nanomol/L 26S proteasome by IDE from 1 nanomol/L to 50 nanomol/L and inhibition of the tryptic-like activity (50 micromol/L Boc-LLR-AMC) of 1 nanomol/L 26S proteasome by IDE from 1 nanomol/L to 50 nanomol/L for one substance.

Experiment [1] has as its target highly purified 26S proteasome, extracted from transformed HEK cells.
Experiment [2] has the same target. The source holds these as a separate data set.

Consider “recombinant IDE expressed in Spodoptera frugiperda (from UniProt P35559 1-1019) (enzyme)”, for which the inhibition of the caspase-like activity (50 micromol/L Z-LLE-AMC, after subtracting IDE's own cleavage) of 1 nanomol/L 26S proteasome by IDE up to 50 nanomol/L at 37°C; value at 50 nanomol/L IDE in experiment [1] amounted to 60%. For the same substance, in experiment [2], the inhibition of the chymotryptic-like activity (50 micromol/L Suc-LLVY-AMC) of 1 nanomol/L 26S proteasome by IDE from 1 nanomol/L to 50 nanomol/L at 37°C; value at 50 nanomol/L IDE was determined as 55% and the inhibition of the tryptic-like activity (50 micromol/L Boc-LLR-AMC) of 1 nanomol/L 26S proteasome by IDE from 1 nanomol/L to 50 nanomol/L at 37°C; value at 50 nanomol/L IDE is 65 to 70%.
